# Reference: paper PMC6083498, “F-CphI represents a new homing endonuclease family using the Endo VII catalytic motif”
# T1: F-CphI (cyanophage S-PM2, UniProt Q7Y4H4 1-142)
# T1 sequence: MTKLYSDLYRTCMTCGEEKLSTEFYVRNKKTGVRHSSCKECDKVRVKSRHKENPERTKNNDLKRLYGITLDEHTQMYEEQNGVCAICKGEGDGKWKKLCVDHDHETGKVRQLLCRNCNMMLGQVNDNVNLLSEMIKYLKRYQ
# B1: SBM4-60Top duplex (dsDNA)
# DNA 1: TGGTCTGGGTATGGAAGTGATGCACGAGCGCAACGCTCACAACTTCCCTCTCGACCTTGC
# DNA 2: GCAAGGTCGAGAGGGAAGTTGTGAGCGTTGCGCTCGTGCATCACTTCCATACCCAGACCA
# Biological target: T1, F-CphI
# Experiment: EMSA; no Mg2+ added; Kd value only in figure; EMSA: 10 mM Tris-HCl pH 8.0, 2% glycerol, 2 ug/ml poly-dIdC, 2 ug/ml BSA, 0.2 mM DTT, on ice 15 min, 2 nM labeled DNA; 8% native PAGE in 1X TBE
# Conditions: protein: recombinant; tags: C-terminal Myc-His (pBAD/Myc-HisB; in frame with downstream His-tag); label: 5'-32P on top strand; blunt
binder,measurement,value
B1,binding result,binds
